Experiment [1] concerns the target Chimera: Huma USP25 (157-[AIM of D. rerio USP28]-714) (human | zebrafish (Danio rerio)). Nature of the experiment: SEC-MALS; 100 μL of 1-2 mg/mL protein on Superdex 200 10/300, 0.5 mL/min, PBS + 2 mM DTT.
In experiment [2] the target is Chimera: Human USP25 (157-[Insert of Human USP28]-714) (human). The experiment is described as above.
In experiment [3] the target is Chimera: Human USP28 (149-[Insert of Human USP25]-703) (human). The experiment is described as above.
Experiment [4] addresses D. rerio USP28 (1-738,763-1187) (zebrafish (Danio rerio)). Nature of the experiment: not stated; oligomeric states of purified orthologs and of full-length proteins, Figures S7A, S7B and S3J.
The target of experiment [5] is D. rerio USP28 (138-684) (zebrafish (Danio rerio)). Described as above.
Experiment [6] addresses G. gallus USP25 (174-726) (chicken (Gallus gallus)). Described as above.
Experiment [7] concerns the target G. gallus USP25 (174-726)∼Ub-PA (chicken (Gallus gallus) | not stated). The experiment is described as above.

Consider “Chimera: Huma USP25 (157-[AIM of D. rerio USP28]-714) (domain or fragment)”, for which the stoichiometry N in experiment [1] worked out at 2.
On to “Chimera: Human USP25 (157-[Insert of Human USP28]-714) (domain or fragment)”, for which the stoichiometry N in experiment [2] came out at 2.
In the case of “Chimera: Human USP28 (149-[Insert of Human USP25]-703) (domain or fragment)”, the stoichiometry N in experiment [3] was determined as 2.
As to “D. rerio USP28 (1-738,763-1187) (enzyme)”, the stoichiometry N in experiment [4] was determined as 2.
Substance “D. rerio USP28 (138-684) (domain or fragment)” yielded a stoichiometry N in experiment [5] of 2.
In experiment [6], “G. gallus USP25 (174-726) (domain or fragment)” displayed a stoichiometry N of 4.
“G. gallus USP25 (174-726)∼Ub-PA (from UniProt P0CG48 1-75) (complex)” yielded a stoichiometry N in experiment [7] of 2.

(Values after article PMC6509359.)
